US20090075374A1, “METHODS OF GENERATING EPITHELIAL LINEAGE CELLS FROM EMBRYOID BODIES AND PLURIPOTENT CELLS” (priority 2007, published 2009)

B1: Noggin: a BMP inhibitor (R&D Systems) (protein, UniProt Q13253 28-232, looked up)
Noggin: QHYLHIRPAPSDNLPLVDLIEHPDPIFDPKEKDLNETLLRSLLGGHYDPGFMATSPPEDRPGGGGGAAGGAEDLAELDQLLRQRPSGAMPSEIKGLEFSEGLAQGKKQRLSKKLRRKLQMWLWSQTFCPVLYAWNDLGSRFWPRYVKVGSCFSKRSCSVPEGMVCKPSKSVHLTVLRWRCQRRGGQRCGWIPIQYPIISECKCSC
B2: BMP-4: bone morphogenetic protein-4 (R&D Systems), growth factor of the TGF-β superfamily (protein, UniProt P12644 293-408, looked up)
Bone morphogenetic protein 4: SPKHHSQRARKKNKNCRRHSLYVDFSDVGWNDWIVAPPGYQAFYCHGDCPFPLADHLNSTNHAIVQTLVNSVNSSIPKACCVPTELSAISMLYLDEYDKVVLKNYQEMVVEGCGCR

Columns and labels:
Type in all cases: cell-based, human
[1] = test system: hESCs; experiment: Direct differentiation of hESCs to K14-positive cells; conditions: for K14+ yield: subsequent culture in keratinocyte medium, RA+/− cultures
Protocol: For immunohistochemistry, cells were fixed in 4% paraformaldehyde for 15 minutes at room temperature before blocking and permeabilizing with 5% milk in PBS with 0.4% Triton X-100.

[2] = test system: undifferentiated hESCs; experiment: Concentration-dependent effect of RA: toxicity; conditions: higher concentrations (e.g., 10 μM)
Protocol: In some experiments, K14-positive cells were generated from EBs.
To study the concentration-dependent effect of RA, EBs were differentiated with varying RA concentrations for nine days and subsequently cultured on gelatin in DSFM for nineteen days. […] To study the temporal-dependent effect of RA, RA was added to the cultures at various stages of differentiation (e.g., either during EB induction or during adherent culture in DSFM). […] When exposed to RA, plated cells from control EBs were enriched in neural precursor populations, as confirmed by qPCR analysis.

[3] = test system: hESCs; experiment: Direct differentiation of hESCs in N2 medium containing RA, BMP-4 or Noggin: epithelial and neuroectodermal transcripts; conditions: six days, BMP-4 inhibition in RA-treated samples
Protocol: For semi-quantitative and quantitative PCR, RNA was harvested from cells using a RNeasy® Mini kit (Qiagen; Valencia, Calif.). cDNA was then generated using Omniscript® RT (Qiagen), 1 μg RNA and oligo-dT primers. For semi-quantitative analysis, PCR was conducted using Platinum® Taq (Invitrogen) with 1 μl cDNA for 30 or 35 cycles. For quantitative analysis, PCR was conducted using Quantitect® SYBR Green qPCR kit (Qiagen) with 1 μl cDNA on an iCycler (BioRad; Hercules, Calif.). Relative expression levels were calculated using the ΔCT method, normalizing to GAPDH transcription. Primers (Table 1) were designed to span intron or bound exon borders, and PCR products were verified by melt curve analysis and/or 2% agarose gel electrophoresis.
BMP-4 synergized with RA in direct differentiation of hESCs to K14^+ cells. hESCs were directly differentiated in N2 medium containing RA, BMP-4 or Noggin (a BMP inhibitor). After differentiation for six days, RNA was analyzed for expression of epithelial and neuroectodermal transcripts. ΔNp63 was elevated in all RA-treated cell samples, regardless of status of BMP signaling.

Row | Molecule | cells expressing K14 ([1]; after five weeks of differentiation, subculture in keratinocyte medium) [%] | toxicity to undifferentiated hESCs [2] | effect on RA downregulation of neuroepithelial gene expression [3] | K14+ yield [1]
1 | CC1=C(/C=C/C(C)=C/C=C/C(C)=C/C(=O)O)C(C)(C)CCC1 [RA, tretinoin (all-trans RA), reference compound] | 87 | appeared toxic |  | 
2 | B1 |  |  | mitigated this effect | decreased
3 | B2 |  |  |  | only slightly affected
